The supplement of paper PMC9112550, “Optimization of the antimicrobial peptide Bac7 by deep mutational scanning” (BMC Biology, 2022)

Tested on: Escherichia coli TOP10
Assay: shrunken log2 fold change of peptide-encoding DNA abundance (4.5 h post-induction vs induction); higher = less antimicrobial activity (less host growth inhibition)
Conditions: time post-induction: 4.5 h; library: site-saturation at positions 5, 18, 19, 20
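Note: peptides expressed intracellularly from a pBAD plasmid library in pooled LB shake-flask culture, induced with 0.3% L-arabinose, DNA abundance read by NGS, three biological replicates, DESeq2 with apeglm shrinkage.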

| Sequence | shrunken log2 fold change |
| --- | --- |
| RRIRNRPPRLPRPRPRPDLQPRP | -0.0156 |
| RRIRNRPPRLPRPRPRPDMWPRP | -0.119 |
| RRIRNRPPRLPRPRPRPDNLPRP | -1.04 |
| RRIRNRPPRLPRPRPRPDQSPRP | 0.00307 |
| RRIRNRPPRLPRPRPRPDQWPRP | 0.0039 |
| RRIRNRPPRLPRPRPRPDRCPRP | -0.0122 |
| RRIRNRPPRLPRPRPRPDSEPRP | -0.0671 |
| RRIRNRPPRLPRPRPRPDSFPRP | -0.0232 |
| RRIRNRPPRLPRPRPRPDSPPRP | -0.0758 |
| RRIRNRPPRLPRPRPRPDTIPRP | -0.145 |
| RRIRNRPPRLPRPRPRPDVNPRP | -0.00804 |
| RRIRNRPPRLPRPRPRPDYTPRP | 0.115 |
| RRIRNRPPRLPRPRPRPEAEPRP | 0.497 |
| RRIRNRPPRLPRPRPRPEAVPRP | 0.0335 |
| RRIRNRPPRLPRPRPRPEAWPRP | -0.0397 |
| RRIRNRPPRLPRPRPRPEDFPRP | 0.0401 |
| RRIRNRPPRLPRPRPRPEELPRP | 0.678 |
| RRIRNRPPRLPRPRPRPEEQPRP | 0.202 |
| RRIRNRPPRLPRPRPRPEESPRP | 0.013 |
| RRIRNRPPRLPRPRPRPEFVPRP | 0.189 |
| RRIRNRPPRLPRPRPRPEGGPRP | -0.00659 |
| RRIRNRPPRLPRPRPRPEHCPRP | -0.0139 |
| RRIRNRPPRLPRPRPRPEKCPRP | -0.0684 |
| RRIRNRPPRLPRPRPRPESEPRP | 0.0333 |
| RRIRNRPPRLPRPRPRPESLPRP | 0.0505 |

| Sequence | shrunken log2 fold change |
| --- | --- |
| RRIRNRPPRLPRPRPRPEVCPRP | -0.049 |
| RRIRNRPPRLPRPRPRPEVHPRP | -0.0167 |
| RRIRNRPPRLPRPRPRPEVLPRP | -0.212 |
| RRIRNRPPRLPRPRPRPEWDPRP | -0.00515 |
| RRIRNRPPRLPRPRPRPEWHPRP | -0.285 |
| RRIRNRPPRLPRPRPRPEWNPRP | 0.0541 |
| RRIRNRPPRLPRPRPRPEYPPRP | -0.243 |
| RRIRNRPPRLPRPRPRPFAKPRP | 0.637 |
| RRIRNRPPRLPRPRPRPFCEPRP | -0.28 |
| RRIRNRPPRLPRPRPRPFCRPRP | -0.223 |
| RRIRNRPPRLPRPRPRPFCYPRP | 0.166 |
| RRIRNRPPRLPRPRPRPFDCPRP | 0.0101 |
| RRIRNRPPRLPRPRPRPFDSPRP | -0.303 |
| RRIRNRPPRLPRPRPRPFESPRP | 0.00843 |
| RRIRNRPPRLPRPRPRPFFKPRP | 0.0559 |
| RRIRNRPPRLPRPRPRPFFWPRP | 0.0463 |
| RRIRNRPPRLPRPRPRPFFYPRP | -0.242 |
| RRIRNRPPRLPRPRPRPFGDPRP | 0.0215 |
| RRIRNRPPRLPRPRPRPFGFPRP | -0.132 |
| RRIRNRPPRLPRPRPRPFHAPRP | -0.0245 |
| RRIRNRPPRLPRPRPRPFHIPRP | -0.0783 |
| RRIRNRPPRLPRPRPRPFIQPRP | -0.737 |
| RRIRNRPPRLPRPRPRPFLNPRP | -0.392 |
| RRIRNRPPRLPRPRPRPFLRPRP | -0.0221 |
| RRIRNRPPRLPRPRPRPFNKPRP | -0.72 |

| Sequence | shrunken log2 fold change |
| --- | --- |
| RRIRNRPPRLPRPRPRPFNLPRP | -0.207 |
| RRIRNRPPRLPRPRPRPFPFPRP | -0.22 |
| RRIRNRPPRLPRPRPRPFPMPRP | -0.0139 |
| RRIRNRPPRLPRPRPRPFQMPRP | -0.673 |
| RRIRNRPPRLPRPRPRPFRAPRP | -0.00309 |
| RRIRNRPPRLPRPRPRPFTHPRP | -0.374 |
| RRIRNRPPRLPRPRPRPFTTPRP | -0.0245 |
| RRIRNRPPRLPRPRPRPFYAPRP | -0.281 |
| RRIRNRPPRLPRPRPRPFYMPRP | -0.18 |
| RRIRNRPPRLPRPRPRPGCRPRP | 0.123 |
| RRIRNRPPRLPRPRPRPGDEPRP | 0.0115 |
| RRIRNRPPRLPRPRPRPGDHPRP | -0.0463 |
| RRIRNRPPRLPRPRPRPGDMPRP | -0.21 |
| RRIRNRPPRLPRPRPRPGETPRP | 0.0546 |
| RRIRNRPPRLPRPRPRPGFAPRP | 0.444 |
| RRIRNRPPRLPRPRPRPGFIPRP | 0.0474 |
| RRIRNRPPRLPRPRPRPGFMPRP | -0.0522 |
| RRIRNRPPRLPRPRPRPGFYPRP | 0.00223 |
| RRIRNRPPRLPRPRPRPGHKPRP | 0.0903 |
| RRIRNRPPRLPRPRPRPGKEPRP | -0.311 |
| RRIRNRPPRLPRPRPRPGKQPRP | -0.406 |
| RRIRNRPPRLPRPRPRPGLAPRP | 0.415 |
| RRIRNRPPRLPRPRPRPGLTPRP | -0.0698 |
| RRIRNRPPRLPRPRPRPGNQPRP | -0.00674 |
| RRIRNRPPRLPRPRPRPGPYPRP | -0.00784 |

| Sequence | shrunken log2 fold change |
| --- | --- |
| RRIRNRPPRLPRPRPRPGQRPRP | 0.00993 |
| RRIRNRPPRLPRPRPRPGSLPRP | -0.0901 |
| RRIRNRPPRLPRPRPRPGSQPRP | 0.0302 |
| RRIRNRPPRLPRPRPRPGTHPRP | -0.16 |
| RRIRNRPPRLPRPRPRPGVPPRP | 0.457 |
| RRIRNRPPRLPRPRPRPGWSPRP | 0.2 |
| RRIRNRPPRLPRPRPRPGWTPRP | 0.0174 |
| RRIRNRPPRLPRPRPRPGYEPRP | 0.0608 |
| RRIRNRPPRLPRPRPRPHDHPRP | 0.171 |
| RRIRNRPPRLPRPRPRPHEEPRP | -0.0188 |
| RRIRNRPPRLPRPRPRPHEHPRP | -0.155 |
| RRIRNRPPRLPRPRPRPHGQPRP | -0.0642 |
| RRIRNRPPRLPRPRPRPHGSPRP | -0.00146 |
| RRIRNRPPRLPRPRPRPHGWPRP | 0.127 |
| RRIRNRPPRLPRPRPRPHHQPRP | -1.12 |
| RRIRNRPPRLPRPRPRPHHRPRP | 0.0742 |
| RRIRNRPPRLPRPRPRPHICPRP | -0.0994 |
| RRIRNRPPRLPRPRPRPHNDPRP | -0.395 |
| RRIRNRPPRLPRPRPRPHNFPRP | -0.436 |
| RRIRNRPPRLPRPRPRPHNVPRP | -0.0343 |
| RRIRNRPPRLPRPRPRPHQEPRP | -0.00146 |
| RRIRNRPPRLPRPRPRPHREPRP | -0.00211 |
| RRIRNRPPRLPRPRPRPHSSPRP | -0.00587 |
| RRIRNRPPRLPRPRPRPHTCPRP | 0.0167 |
| RRIRNRPPRLPRPRPRPHTKPRP | -0.238 |

| Sequence | shrunken log2 fold change |
| --- | --- |
| RRIRNRPPRLPRPRPRPHTPPRP | -0.317 |
| RRIRNRPPRLPRPRPRPHTRPRP | 0.0907 |
| RRIRNRPPRLPRPRPRPHVAPRP | -0.0498 |
| RRIRNRPPRLPRPRPRPHVHPRP | -0.109 |
| RRIRNRPPRLPRPRPRPHWTPRP | 0.0333 |
| RRIRNRPPRLPRPRPRPHYTPRP | -0.0895 |
| RRIRNRPPRLPRPRPRPIAAPRP | 0.147 |
| RRIRNRPPRLPRPRPRPIAEPRP | 0.196 |
| RRIRNRPPRLPRPRPRPICNPRP | -0.203 |
| RRIRNRPPRLPRPRPRPIDQPRP | -0.058 |
| RRIRNRPPRLPRPRPRPIFDPRP | -0.201 |
| RRIRNRPPRLPRPRPRPIHEPRP | -0.00804 |
| RRIRNRPPRLPRPRPRPILCPRP | -0.174 |
| RRIRNRPPRLPRPRPRPILPPRP | -0.297 |
| RRIRNRPPRLPRPRPRPILTPRP | -0.135 |
| RRIRNRPPRLPRPRPRPIPQPRP | -0.35 |
| RRIRNRPPRLPRPRPRPIQCPRP | -0.01 |
| RRIRNRPPRLPRPRPRPIQKPRP | -0.287 |
| RRIRNRPPRLPRPRPRPITPPRP | 0.119 |
| RRIRNRPPRLPRPRPRPIVEPRP | 0.0466 |
| RRIRNRPPRLPRPRPRPIVFPRP | -0.207 |
| RRIRNRPPRLPRPRPRPIVTPRP | -0.179 |
| RRIRNRPPRLPRPRPRPKDHPRP | -0.218 |
| RRIRNRPPRLPRPRPRPKFIPRP | -0.602 |
| RRIRNRPPRLPRPRPRPKFLPRP | 0.0309 |

| Sequence | shrunken log2 fold change |
| --- | --- |
| RRIRNRPPRLPRPRPRPKFSPRP | -0.0617 |
| RRIRNRPPRLPRPRPRPKFTPRP | -0.0624 |
| RRIRNRPPRLPRPRPRPKGCPRP | -0.0382 |
| RRIRNRPPRLPRPRPRPKHPPRP | 0.111 |
| RRIRNRPPRLPRPRPRPKHQPRP | 0.124 |
| RRIRNRPPRLPRPRPRPKIIPRP | -0.118 |
| RRIRNRPPRLPRPRPRPKIKPRP | -0.256 |
| RRIRNRPPRLPRPRPRPKKFPRP | -0.0756 |
| RRIRNRPPRLPRPRPRPKKHPRP | -0.315 |
| RRIRNRPPRLPRPRPRPKLGPRP | 0.055 |
| RRIRNRPPRLPRPRPRPKLNPRP | -0.208 |
| RRIRNRPPRLPRPRPRPKLVPRP | 0.163 |
| RRIRNRPPRLPRPRPRPKMMPRP | -0.249 |
| RRIRNRPPRLPRPRPRPKMYPRP | -0.0156 |
| RRIRNRPPRLPRPRPRPKPFPRP | -0.104 |
| RRIRNRPPRLPRPRPRPKPPPRP | 0.436 |
| RRIRNRPPRLPRPRPRPKQCPRP | -0.293 |
| RRIRNRPPRLPRPRPRPKQLPRP | 0.252 |
| RRIRNRPPRLPRPRPRPKQPPRP | 0.00591 |
| RRIRNRPPRLPRPRPRPKRDPRP | 0.411 |
| RRIRNRPPRLPRPRPRPKSSPRP | -0.0182 |
| RRIRNRPPRLPRPRPRPKVHPRP | 0.0346 |
| RRIRNRPPRLPRPRPRPKVSPRP | 0.264 |
| RRIRNRPPRLPRPRPRPKWDPRP | 0.0992 |
| RRIRNRPPRLPRPRPRPKWMPRP | -0.19 |
